This is an account of results in patent US20090137002A1 (published 2009).

The target of assay [1] is T1, myc-tagged human EphB4 on transfected CHO cells (human, UniProt P54760 16-987).
T1 construct: whole, on cells; also called CHO-EphB4; CHO-hEphB4; not shown: myc tag
T1 sequence (looked up): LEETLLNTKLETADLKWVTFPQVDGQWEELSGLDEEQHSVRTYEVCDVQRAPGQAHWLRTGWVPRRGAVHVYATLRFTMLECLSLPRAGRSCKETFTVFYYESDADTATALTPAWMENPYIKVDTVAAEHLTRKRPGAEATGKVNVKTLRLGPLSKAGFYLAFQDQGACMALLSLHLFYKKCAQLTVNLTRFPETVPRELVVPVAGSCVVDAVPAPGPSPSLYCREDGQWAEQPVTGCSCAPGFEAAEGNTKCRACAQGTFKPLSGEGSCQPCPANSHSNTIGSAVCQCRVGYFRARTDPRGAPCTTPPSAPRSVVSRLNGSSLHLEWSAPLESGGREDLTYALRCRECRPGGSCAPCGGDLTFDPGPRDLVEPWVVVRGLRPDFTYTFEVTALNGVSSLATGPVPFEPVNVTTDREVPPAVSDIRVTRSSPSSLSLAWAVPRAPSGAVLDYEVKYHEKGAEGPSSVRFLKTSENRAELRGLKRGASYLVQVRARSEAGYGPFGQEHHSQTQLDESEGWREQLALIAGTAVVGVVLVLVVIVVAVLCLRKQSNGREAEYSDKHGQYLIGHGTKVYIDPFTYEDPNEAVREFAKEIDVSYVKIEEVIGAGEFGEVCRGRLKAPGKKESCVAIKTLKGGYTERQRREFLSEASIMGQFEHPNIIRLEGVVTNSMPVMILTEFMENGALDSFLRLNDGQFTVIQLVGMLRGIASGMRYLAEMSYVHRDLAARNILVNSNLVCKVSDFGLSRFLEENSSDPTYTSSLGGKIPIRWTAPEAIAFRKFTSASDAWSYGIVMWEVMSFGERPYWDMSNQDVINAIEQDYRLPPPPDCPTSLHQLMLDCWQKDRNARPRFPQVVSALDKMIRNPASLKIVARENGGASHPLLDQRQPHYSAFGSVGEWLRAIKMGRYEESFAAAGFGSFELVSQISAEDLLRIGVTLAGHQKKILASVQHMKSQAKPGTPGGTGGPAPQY
The assay can be described thus: FACS titration on CHO-EphB4 cells.

In assay [2] the target is T1, myc-tagged human EphB4 on transfected …. The assay can be described thus: FACS, inhibition of murine ephrin-B2 binding to CHO-EphB4 cells. As for the experimental part: CHO-EphB4 cells were preincubated with matured Fab at different concentrations followed by addition of the ligand, murine ephrin-B2 (extracellular domain, 98% identity to human Ephrin-B2). Receptor-bound ephrin-B2 was then detected via biotinylated anti-mouse ephrin-B2 antibody (R&D Systems) and streptavidin-PE. […] The MOR07310 derivatives perform slightly better than the MOR03641 derivatives. The IC50 values of the x-cloned binders are in the same range as those of their cloning parentals.
(Flow cytometry measures light scatter and fluorescence of single cells or particles in a stream.)

For the next assay, the target named is T2, recombinant mouse EphB2 (mouse, UniProt P54763 19-540, limits assumed).
T2 construct: also called mEphB2
T2 sequence (looked up): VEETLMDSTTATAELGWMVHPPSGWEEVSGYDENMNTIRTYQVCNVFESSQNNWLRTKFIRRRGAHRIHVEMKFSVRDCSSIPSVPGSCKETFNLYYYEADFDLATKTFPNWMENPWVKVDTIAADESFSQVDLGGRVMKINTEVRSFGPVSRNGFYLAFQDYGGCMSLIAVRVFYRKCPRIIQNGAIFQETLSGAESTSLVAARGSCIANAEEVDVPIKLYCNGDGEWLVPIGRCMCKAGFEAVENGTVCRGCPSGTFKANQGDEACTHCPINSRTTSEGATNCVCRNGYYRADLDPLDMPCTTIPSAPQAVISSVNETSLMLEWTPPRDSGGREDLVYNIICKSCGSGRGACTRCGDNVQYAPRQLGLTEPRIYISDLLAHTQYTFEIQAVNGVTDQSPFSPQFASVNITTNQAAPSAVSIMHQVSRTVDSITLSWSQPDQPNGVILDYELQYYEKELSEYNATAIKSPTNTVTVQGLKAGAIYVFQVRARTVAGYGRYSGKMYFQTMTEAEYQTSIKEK
The assay can be described thus: ELISA, well M15 [part 2]. For orientation: In an ELISA, binding on a coated surface is turned into a signal by an enzyme label.

Assay [3] concerns the target T3, recombinant murine EphB4-Fc fusion protein (mouse, UniProt P54761 16-539).
T3 construct: extracellular domain; also called mEphB4; mu EphB4; not shown: Fc part, not described
T3 sequence (looked up): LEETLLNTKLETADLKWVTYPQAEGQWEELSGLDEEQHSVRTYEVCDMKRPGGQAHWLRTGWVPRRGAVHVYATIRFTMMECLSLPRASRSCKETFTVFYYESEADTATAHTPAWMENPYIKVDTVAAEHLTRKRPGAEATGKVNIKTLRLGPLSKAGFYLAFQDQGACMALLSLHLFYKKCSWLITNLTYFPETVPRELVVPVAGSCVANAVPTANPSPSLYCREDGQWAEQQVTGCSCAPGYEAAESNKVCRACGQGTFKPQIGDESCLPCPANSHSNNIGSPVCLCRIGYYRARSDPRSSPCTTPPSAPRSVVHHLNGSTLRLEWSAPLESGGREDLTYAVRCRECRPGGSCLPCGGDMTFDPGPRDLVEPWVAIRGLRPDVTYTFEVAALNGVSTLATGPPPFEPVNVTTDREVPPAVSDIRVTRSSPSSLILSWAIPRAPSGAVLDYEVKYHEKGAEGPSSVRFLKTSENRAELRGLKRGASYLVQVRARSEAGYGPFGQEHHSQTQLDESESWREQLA
The assay can be described thus: SET (MSD), solution equilibrium titration; n = 1. As for the experimental part: Two independent measurements were performed on human and murine EphB4-Fc.

B1: MOR03641 Fab (Fab, V domains shown)
VH: QVQLVQSGAEVKKPGSSVKVSCKASGGTFSTYAISWVRQAPGQGLEWMGRIIPIFGTANYAQKFQGRVTITADESTSTAYMELSSLRSEDTAVYYCARSSYTILTTYYNYNAMDNWGQGTLVTVSS
VL: DIQMTQSPSSLSASVGDRVTITCRASQNINNFLNWYQQKPGKAPKLLIYGSSILQSGVPSRFSGSGSGTDFTLTISSLQPEDFAVYYCHQVSDTSDTFGQGTKVEIKR
notes: Monomeric HuCAL Fab (VH1A, kappa1), purified, MH-tagged; also called 3541 [sic]
By EC50 is commonly meant the concentration giving half of the maximal effect. As usually defined, the IC50 is the concentration that gives 50% inhibition. High values mean weaker potency, low ones greater potency. The molecule B1 yielded an EC50 in assay [1] greater than 40 nM. For the same molecule, the IC50 in assay [2] worked out at 4.7 nM.

B2: MOR03640 Fab (Fab, V domains shown)
VH: QVQLVESGGGLVQPGGSLRLSCAASGFTFNNSWMSWVRQAPGKGLEWVSNITSSSSMTHYADSVKGRFTISRDNSKNTLYLQMNSLRAEDTAVYYCARKGMSFYNNKYAKSMFDLWGQGTLVTVSS
VL: DIELTQPPSVSVAPGQTARISCSGDNLGKKYVHWYQQKPGQAPVLVIYYDSKRPSGIPERFSGSNSGNTATLTISGTQAEDEADYYCSAWTTTMMHIVFGGGTKLTVLG
notes: Monomeric HuCAL Fab, purified, MH-tagged
By Kd is commonly meant the concentration at which binding is half-saturated. As to B2, the binding result with recombinant mouse EphB2 is listed as “no binding”. Moreover, the Kd in assay [3] came to 6.63 nM.
